Experiments:
[1] = Fluorescence polarization equilibrium competition binding assay, unlabeled digoxigenin; conditions: for Ki: steroid Digoxigenin (DIG), PBS pH 7.4, 25° C., read-out: Inhibition Constant (Ki)
Protocol: (§1) Proteins were expressed in E. coli Rosetta 2 (DE3) cells with a C-terminal TEV protease cleavable His6 tag for biochemical assays. For crystallographic analysis of DIG10 variants, a 12-amino acid structurally disordered C-terminus deriving from the scaffold protein 1z1s was replaced directly with a His6 tag. Binding affinities were determined by equilibrium fluorescence polarization^30 on a SpectraMax M5e microplate reader by monitoring the anisotropy of DIG-conjugated Alexa488 as a function of protein concentration. Equilibrium fluorescence polarization competition assays were performed by examining the effect of increasing concentrations of unlabeled DIG, digitoxigenin, progesterone, and β-estradiol on the anisotropy of designed protein-DIG-conjugated Alexa488 complex.
(§2) Fluorescence polarization binding assays. Fluorescence polarization-based affinity measurements of designs and their evolved variants were performed as described^46 using Alexa488-conjugated DIG (DIG-PEG3-Alexa488). Fluorescence anisotropy (r) was measured in 96-well plate format on a SpectraMax M5e microplate reader (Molecular Devices) with λex=485 nM and λem=538 nM using a 515 nm emission cutoff filter. Fluorescence polarization equilibrium competition binding assays were used to determine the binding affinities of DIG10.3 and its variants for unlabeled digoxigenin, digitoxigenin, progesterone, β-estradiol, and digoxin. The inhibition constant for each protein-ligand interaction, Ki, was calculated from the measured total unlabeled ligand producing 50% binding signal inhibition (I50) and the Kd of the protein-label interaction according to a model accounting for receptor-depletion conditions^46.
(§3) Fluorescence polarization equilibrium competition binding assays. Fluorescence polarization equilibrium competition binding assays were used to determine the binding affinities of DIG10.3 and its variants for unlabeled digoxigenin, digitoxigenin, progesterone, β-estradiol, and digoxin. […] Unlabeled stock solutions of digoxigenin, digitoxigenin, progesterone, and β-estradiol were prepared in methanol. Unlabeled stock solutions of digoxin were prepared in DMSO. Ligand stock solutions were 10 mM for DIG, digitoxigenin, and digoxin, and 1 mM for progesterone and β-estradiol. For each ligand concentration, a negative control sample containing only DIG-PEG3-Alexa488 and the appropriate dilution of a corresponding methanol-only control solution in PBS was measured.
(§4) Fluorescence anisotropy (r) was measured as noted above. In all experiments, PBS (pH 7.4) was used as the buffer system and the temperature was 25° C. The concentration of total unlabeled ligand producing 50% binding signal inhibition (I50) was determined by fitting a plot of the anisotropy averaged over a period of 30 min to 3 hr after reaction initiation versus unlabeled ligand concentration as described previously^47. For some experiments, limiting steroid concentrations made it impossible to collect data in the regime of complete inhibition. In these cases, data were fit by fixing the anisotropy at infinite steroid concentration to a value measured for other steroids for which this value could be determined experimentally. […]
The inhibition constant for each protein-ligand interaction, Ki, was calculated from the measured IC50 and the Kd of the protein-label interaction according to a model accounting for receptor-depletion conditions^47. […]

[2] = Fluorescence polarization equilibrium competition binding assay, unlabeled digitoxigenin; conditions: steroid digitoxigenin; PBS pH 7.4, 25° C.; read-out: Inhibition Constant (Ki)
Protocol: as §1
as §2, with “The inhibition constant for each protein-ligand interaction, Ki, was calculated from the measured total unlabeled ligand producing 50% binding signal inhibition (I50) and the Kd of the protein-label interaction according to a model accounting for receptor-depletion conditions^46.” left out
(§5) Fluorescence polarization equilibrium competition binding assays. Fluorescence polarization equilibrium competition binding assays were used to determine the binding affinities of DIG10.3 and its variants for unlabeled digoxigenin, digitoxigenin, progesterone, β-estradiol, and digoxin. […] For each ligand concentration, a negative control sample containing only DIG-PEG3-Alexa488 and the appropriate dilution of a corresponding methanol-only control solution in PBS was measured.
(§6) Fluorescence anisotropy (r) was measured as noted above. […]

[3] = Fluorescence polarization equilibrium competition binding assay, unlabeled progesterone; conditions: steroid progesterone; PBS pH 7.4, 25° C.; read-out: Inhibition Constant (Ki)
Protocol: as §1
as §2, with “The inhibition constant for each protein-ligand interaction, Ki, was calculated from the measured total unlabeled ligand producing 50% binding signal inhibition (I50) and the Kd of the protein-label interaction according to a model accounting for receptor-depletion conditions^46.” left out
as §5, §6

[4] = Fluorescence polarization equilibrium competition binding assay, unlabeled β-estradiol; conditions: steroid β-estradiol; PBS pH 7.4, 25° C.; read-out: Inhibition Constant (Ki)
Protocol: as §1
as §2, with “The inhibition constant for each protein-ligand interaction, Ki, was calculated from the measured total unlabeled ligand producing 50% binding signal inhibition (I50) and the Kd of the protein-label interaction according to a model accounting for receptor-depletion conditions^46.” left out
as §5, §6

[5] = Fluorescence polarization equilibrium competition binding assay, unlabeled digoxin
Protocol: as §2
as §3, with “Ligand stock solutions were 10 mM for DIG, digitoxigenin, and digoxin, and 1 mM for progesterone and β-estradiol.” left out
as §4, with “In all experiments, PBS (pH 7.4) was used as the buffer system and the temperature was 25° C.” left out, “For some experiments, limiting steroid concentrations made it impossible to collect data in the regime of complete inhibition.” left out

Molecule	DIG binding affinity relative to widely used anti-DIG antibodies [1]	affinity for DIG (in words) [1]	Ki [1] [nM]	Ki [2] [nM]	Ki [3] [nM]	Ki [4] [nM]	affinity for digoxin (in words) [5]	affinity for digoxin compared with DIG ([5]; competition FP)	Ki ([5]; steroid digoxin, PBS pH 7.4, 25° C., read-out: Inhibition Constant (Ki)) [nM]
DIG10.3: DIG10.2 variant with C23S, H90L, V92A, A99Y, S103A, L105W; SEQ ID NO: 15 (protein, (130)..(141) amino acids are optionally absent) MNAKEIVVHALRLLENGDARGWSDLFHPEGVLEYPYPPPGYKTRFEGRETIWAHMRLFPEYMTIRFTDVQFYETADPDLAIGEFHGDGVLTASGGKLAYDYIAVWRTRDGQILLYRLFFNPLRVLEPLGGVEAAAKIVQGA	within a factor of two	picomolar affinity	0.653 ± 0.262	19 ± 7	243 ± 91	2100 ± 800	picomolar affinity	slightly higher than that for DIG	0.223 ± 0.105
DIG10.3 Y34F/Y99F/Y101F: DIG10.3 triple mutant, SEQ ID NO: 22 (protein, (130)..(141) amino acids are optionally absent) MNAKEIVVHALRLLENGDARGWSDLFHPEGVLEFPYPPPGYKTRFEGRETIWAHMRLFPEYMTIRFTDVQFYETADPDLAIGEFHGDGVLTASGGKLAFDFIAVWRTRDGQILLYRLFFNPLRVLEPLGGVEAAAKIVQGA	–	–	580 ± 229	< 16	< 17	1600 ± 600	–	–	–
DIG10.3 Y101F: DIG10.3 point mutant, SEQ ID NO: 19 (protein, (130)..(141) amino acids are optionally absent) MNAKEIVVHALRLLENGDARGWSDLFHPEGVLEYPYPPPGYKTRFEGRETIWAHMRLFPEYMTIRFTDVQFYETADPDLAIGEFHGDGVLTASGGKLAYDFIAVWRTRDGQILLYRLFFNPLRVLEPLGGVEAAAKIVQGA	–	–	39 ± 8	< 3.8	30 ± 9	1700 ± 400	–	–	–

From patent publication US9840539B2, “High affinity digoxigenin binding proteins” (UNIVERSITY OF WASHINGTON THROUGH ITS CENTER FOR …, priority 2013, dated 2017)
